In publication PMC10201431, “SirA inhibits the essential DnaA:DnaD interaction to block helicase recruitment during Bacillus subtilis sporulation” (Nucleic Acids Research, 2022):

Tests used:
[1] = target: DnaD^L22A, purified recombinant (B. subtilis) (UniProt P39787); experiment: SEC-MALS; 20°C; 40 mM Tris-HCl pH 8, 500 mM NaCl, 1 mM EDTA, 20 mM imidazole, 2.5% glycerol; 100 μl injected
[2] = target: the molecule itself; experiment: cross-linking; BS3, 250 nM protein, 500x molar excess BS3, 6 min at 20°C, 20 mM HEPES pH 7.2, 100 mM NaCl, 10 mM magnesium acetate; SDS-PAGE and anti-DnaD immunoblot
[3] = target: the molecule itself; experiment: SEC-MALS; 20°C; 40 mM Tris-HCl pH 8, 500 mM NaCl, 1 mM EDTA, 20 mM imidazole, 2.5% glycerol; 100 μl injected

DnaD^L22A, purified recombinant (from UniProt P39787 1-232) (natural protein)
percent present as monomer [1]: > 50% | stoichiometry N [1]: 4

B1: DnaD^F6A, purified recombinant (natural protein, B. subtilis, UniProt P39787 1-232, looked up)
chain: MKKQQAIDMQEQGTSTIPNLLLTHYKQLGLNETELILLLKIKMHLEKGSYFPTPNQLQEGMSISVEECTNRLRMFIQKGFLFIEECEDQNGIKFEKYSLQPLWGKLYEYIQLAQNQTQERKAEGEQKSLYTIFEEEFARPLSPLECETLAIWQDQDQHDAQLIKHALKEAVLSGKLSFRYIDRILFEWKKNGLKTVEQAKIHSQKFRRVQAKQNEPQKEYKRQVPFYNWLEQ
notes: DnaD, B. subtilis 168CA, with F6A; made from pSF17 by Quickchange; source: E. coli BL21(DE3)-pLysS, purified (HisTrap, SUMO protease digestion, reverse HisTrap)
stoichiometry N [2]: 2

B2: DnaD^K3A, purified recombinant (natural protein, B. subtilis, UniProt P39787 1-232, looked up)
chain: MKAQQFIDMQEQGTSTIPNLLLTHYKQLGLNETELILLLKIKMHLEKGSYFPTPNQLQEGMSISVEECTNRLRMFIQKGFLFIEECEDQNGIKFEKYSLQPLWGKLYEYIQLAQNQTQERKAEGEQKSLYTIFEEEFARPLSPLECETLAIWQDQDQHDAQLIKHALKEAVLSGKLSFRYIDRILFEWKKNGLKTVEQAKIHSQKFRRVQAKQNEPQKEYKRQVPFYNWLEQ
notes: DnaD, B. subtilis 168CA, with K3A; made from pSF17 by Quickchange; source: E. coli BL21(DE3)-pLysS, purified (HisTrap, SUMO protease digestion, reverse HisTrap)
stoichiometry N [2]: 2

B3: DnaD, wild type, purified recombinant (natural protein, B. subtilis, UniProt P39787 1-232, looked up)
chain: MKKQQFIDMQEQGTSTIPNLLLTHYKQLGLNETELILLLKIKMHLEKGSYFPTPNQLQEGMSISVEECTNRLRMFIQKGFLFIEECEDQNGIKFEKYSLQPLWGKLYEYIQLAQNQTQERKAEGEQKSLYTIFEEEFARPLSPLECETLAIWQDQDQHDAQLIKHALKEAVLSGKLSFRYIDRILFEWKKNGLKTVEQAKIHSQKFRRVQAKQNEPQKEYKRQVPFYNWLEQ
notes: DnaD, B. subtilis 168CA; dnaD amplified from genomic DNA and cloned into pSF17; The printed theoretical mass of the tetramer (110 kDa) fits the whole protein; also called Wild-type DnaD; source: E. coli BL21(DE3)-pLysS, purified (HisTrap, SUMO protease digestion, reverse HisTrap)
stoichiometry N [3]: 4
